Data published in article PMC3996851, “Characterization of 3-phosphoglycerate kinase from Corynebacterium glutamicum and its impact on amino acid production” (BMC Microbiology, 2014).

B1: 3-phosphoglycerate kinase (PGK) from Corynebacterium glutamicum, N-terminally His-tagged (enzyme, Corynebacterium glutamicum ATCC 13032, UniProt Q01655 1-405, looked up)
chain: MAVKTLKDLLDEGVDGRHVIVRSDFNVPLNDDREITDKGRIIASLPTLKALSEGGAKVIVMAHLGRPKGEVNEKYSLAPVAEALSDELGQYVALAADVVGEDAHERANGLTEGDILLLENVRFDPRETSKDEAERTAFAQELAALAADNGAFVSDGFGVVHRAQTSVYDIAKLLPHYAGGLVETEISVLEKIAESPEAPYVVVLGGSKVSDKIGVIEALAAKADKIIVGGGMCYTFLAAQGHNVQQSLLQEEMKATCTDLLARFGDKIVLPVDLVAASEFNKDAEKQIVDLDSIPEGWMSLDIGPESVKNFGEVLSTAKTIFWNGPMGVFEFAAFSEGTRGIAQAIIDATAGNDAFSVVGGGDSAASVRVLGLNEDGFSHISTGGGASLEYLEGKELPGVAILAQ
notes: 3-phosphoglycerate kinase (EC 2.7.2.3) of Corynebacterium glutamicum ATCC 13032, encoded by cg1790/pgk; amplified from genomic DNA with primers from start to stop; monomer 47 kDa by SDS-PAGE; The methods say an N-terminal tenfold His tag (pET16b); also called PGK^His; PGKHis; source: E. coli BL21 (DE3) (pET16b-pgk), purified (Ni-NTA, desalted on Sephadex G25); not shown: His10, N-terminal, kept

Tests used:
[1] = target: T1, PGK^His (C. glutamicum 3-phosphoglycerate kinase) (Corynebacterium glutamicum, UniProt Q01655); test: coupled GAPDH/NADH assay, absorbance […] nm; type: biochemical
T1 construct: full length, N-terminal tenfold His tag (pET16b); expressed in E. coli BL21(DE3), Ni-NTA purified; 47 kDa monomer, 104 kDa homodimer

purified protein [2] = substrate: Nc1ncnc2c1ncn2[C@@H]1O[C@H](COP(=O)(O)OP(=O)(O)OP(=O)(O)O)[C@@H](O)[C@H]1O; test: purified protein; type: biochemical, Corynebacterium glutamicum; settings: gluconeogenic direction, co-substrate 3-PG, 2 mM Mg2+, 100 mM TEA-Cl pH 7.4, 30°C
purified protein [3] = substrate: O=C(O)[C@H](O)COP(=O)(O)O; test: purified protein; type: biochemical, Corynebacterium glutamicum; settings: gluconeogenic direction, co-substrate ATP, 2 mM Mg2+, 100 mM TEA-Cl pH 7.4, 30°C
[4] = target: the molecule itself; test: SEC; gel filtration on a Bio-Prep SE-1000/17 column calibrated with BioRad standards; 100 mM TEA-Cl pH 7.4 with the optimal conditions for activity; two runs, 2 mg/ml PGK mixed with standards and 4 mg/ml PGK; single peak of about 104 kDa, fractions checked by enzyme activity (data not shown)

Row | Molecule | Ki [1] [µM] | Km (purified protein [2]) [µM] | Vmax (purified protein [2]) [U/mg] | kcat (purified protein [2]) [s⁻¹] | kcat/Km (purified protein [2]) [M⁻¹ s⁻¹] | Km (purified protein [3]) [µM] | Vmax (purified protein [3]) [U/mg] | kcat (purified protein [3]) [s⁻¹] | kcat/Km (purified protein [3]) [M⁻¹ s⁻¹] | stoichiometry N [4]
1 | Nc1ncnc2c1ncn2[C@@H]1O[C@H](COP(=O)(O)OP(=O)(O)O)[C@@H](O)[C@H]1O [ADP] | 100 |  |  |  |  |  |  |  |  | 
2 | B1 |  | 110 | 150 | 130 | 592000 | 260 | 220 | 191 | 733000 | 2
